For test [1], the target named is T1, collagen type I (collagen I coated 96 well-plates, Gibco).
T1 construct: also called collagen type 1
Kind of test: competition ELISA on collagen I; 50 nM biotinylated lumican detected with streptavidin-HRP, rmLAIR1 varied. In general terms: An ELISA detects its analyte on a solid surface through an enzyme-linked reagent.

Test [2] addresses T1, collagen type I (collagen I coated 96 …). The test is described as follows: ELISA on collagen I, anti-His-HRP.
In test [3] the target is T2, bovine serum albumin (plate blocked with BSA) (bovine, UniProt P02769 25-607).
T2 construct: Specificity control surface
T2 sequence (P02769 25-607 limits assumed): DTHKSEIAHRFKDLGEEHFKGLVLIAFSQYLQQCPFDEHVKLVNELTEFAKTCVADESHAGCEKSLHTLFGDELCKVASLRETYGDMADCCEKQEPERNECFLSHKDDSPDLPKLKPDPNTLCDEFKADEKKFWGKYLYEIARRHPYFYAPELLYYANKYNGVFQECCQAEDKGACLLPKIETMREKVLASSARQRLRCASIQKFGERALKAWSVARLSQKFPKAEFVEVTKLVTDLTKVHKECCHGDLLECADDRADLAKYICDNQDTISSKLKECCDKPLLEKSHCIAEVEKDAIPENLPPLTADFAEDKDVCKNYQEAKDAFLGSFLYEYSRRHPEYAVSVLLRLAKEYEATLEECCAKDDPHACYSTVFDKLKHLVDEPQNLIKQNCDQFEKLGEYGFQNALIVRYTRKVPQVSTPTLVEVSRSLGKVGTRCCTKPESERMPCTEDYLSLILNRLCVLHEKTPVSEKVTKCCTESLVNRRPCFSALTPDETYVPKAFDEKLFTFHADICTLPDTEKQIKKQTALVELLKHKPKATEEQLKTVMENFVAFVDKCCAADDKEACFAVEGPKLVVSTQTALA
The test is described as follows: ELISA on a plate blocked with bovine serum albumin, anti-His-HRP detection.

The target in test [4] is collagen type IV (collagen IV coated 96 well-plates, Corning). Kind of test: ELISA, collagen IV coated plate, anti-6xHis-HRP detection.
For test [5] the target is unchanged. Kind of test: ELISA on collagen IV coated plate, anti-6xHis-HRP.
For test [6], the target named is T1, collagen type I (collagen I coated 96 …). Kind of test: ELISA, collagen I coated plate, anti-6xHis-HRP detection.
For test [7] the target is unchanged. Kind of test: ELISA on collagen I coated plate, anti-6xHis-HRP.
The target in test [8] is T3, CRP-XL-biotin (crosslinked collagen related peptide, biotinylated) (O represents hydroxyproline (all O positions); C-terminal amide (NH2); chains crosslinked to lock the helical structure; biotinylated (site not stated)).
T3 construct: also called CPP-XL-biotin; soluble collagen peptide mimic
T3 sequence (peptide, as listed by the source limits assumed): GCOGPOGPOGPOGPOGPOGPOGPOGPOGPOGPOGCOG
The test is described as follows: kinetic dissociation at 37 C on yeast, MFI of bound CRP-XL-biotin during competition with excess CRP-XL, one-phase exponential decay fit.

Test [9] concerns the target T1, collagen type I (collagen I coated 96 …). Kind of test: ELISA on collagen I after thawing from frozen, with excipients; data not shown.

T1 sequence (P02454 152-1207, chain 1 of 2): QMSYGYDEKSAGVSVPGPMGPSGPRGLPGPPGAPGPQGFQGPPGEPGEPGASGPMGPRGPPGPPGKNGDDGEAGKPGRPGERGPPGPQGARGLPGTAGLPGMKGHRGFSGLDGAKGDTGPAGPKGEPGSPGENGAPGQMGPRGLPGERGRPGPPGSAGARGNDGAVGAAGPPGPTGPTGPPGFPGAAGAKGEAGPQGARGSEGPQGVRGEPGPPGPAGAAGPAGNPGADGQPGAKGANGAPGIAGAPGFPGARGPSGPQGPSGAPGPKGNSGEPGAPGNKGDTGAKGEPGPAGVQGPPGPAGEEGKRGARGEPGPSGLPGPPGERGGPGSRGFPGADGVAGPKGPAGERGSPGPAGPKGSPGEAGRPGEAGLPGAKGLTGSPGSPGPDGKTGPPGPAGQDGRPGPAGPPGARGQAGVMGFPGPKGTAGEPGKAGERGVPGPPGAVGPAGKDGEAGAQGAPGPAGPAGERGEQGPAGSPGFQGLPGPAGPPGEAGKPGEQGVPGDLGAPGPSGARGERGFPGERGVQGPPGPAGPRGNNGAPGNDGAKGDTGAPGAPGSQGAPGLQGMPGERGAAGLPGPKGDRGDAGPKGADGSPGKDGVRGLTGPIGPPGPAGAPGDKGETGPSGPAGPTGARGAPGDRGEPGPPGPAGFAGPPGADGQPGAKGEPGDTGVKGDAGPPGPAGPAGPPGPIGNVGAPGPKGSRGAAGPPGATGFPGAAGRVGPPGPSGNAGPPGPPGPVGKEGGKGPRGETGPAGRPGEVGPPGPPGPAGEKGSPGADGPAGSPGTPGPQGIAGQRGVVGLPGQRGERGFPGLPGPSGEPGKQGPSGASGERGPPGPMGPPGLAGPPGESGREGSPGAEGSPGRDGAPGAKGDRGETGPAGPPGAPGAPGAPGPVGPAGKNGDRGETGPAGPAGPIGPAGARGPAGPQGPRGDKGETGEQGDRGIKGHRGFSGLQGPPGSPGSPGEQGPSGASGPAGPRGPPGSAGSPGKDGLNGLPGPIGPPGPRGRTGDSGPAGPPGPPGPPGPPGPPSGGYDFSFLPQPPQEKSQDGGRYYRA
T1 sequence (P02466 86-1125, chain 2 of 2, further chain): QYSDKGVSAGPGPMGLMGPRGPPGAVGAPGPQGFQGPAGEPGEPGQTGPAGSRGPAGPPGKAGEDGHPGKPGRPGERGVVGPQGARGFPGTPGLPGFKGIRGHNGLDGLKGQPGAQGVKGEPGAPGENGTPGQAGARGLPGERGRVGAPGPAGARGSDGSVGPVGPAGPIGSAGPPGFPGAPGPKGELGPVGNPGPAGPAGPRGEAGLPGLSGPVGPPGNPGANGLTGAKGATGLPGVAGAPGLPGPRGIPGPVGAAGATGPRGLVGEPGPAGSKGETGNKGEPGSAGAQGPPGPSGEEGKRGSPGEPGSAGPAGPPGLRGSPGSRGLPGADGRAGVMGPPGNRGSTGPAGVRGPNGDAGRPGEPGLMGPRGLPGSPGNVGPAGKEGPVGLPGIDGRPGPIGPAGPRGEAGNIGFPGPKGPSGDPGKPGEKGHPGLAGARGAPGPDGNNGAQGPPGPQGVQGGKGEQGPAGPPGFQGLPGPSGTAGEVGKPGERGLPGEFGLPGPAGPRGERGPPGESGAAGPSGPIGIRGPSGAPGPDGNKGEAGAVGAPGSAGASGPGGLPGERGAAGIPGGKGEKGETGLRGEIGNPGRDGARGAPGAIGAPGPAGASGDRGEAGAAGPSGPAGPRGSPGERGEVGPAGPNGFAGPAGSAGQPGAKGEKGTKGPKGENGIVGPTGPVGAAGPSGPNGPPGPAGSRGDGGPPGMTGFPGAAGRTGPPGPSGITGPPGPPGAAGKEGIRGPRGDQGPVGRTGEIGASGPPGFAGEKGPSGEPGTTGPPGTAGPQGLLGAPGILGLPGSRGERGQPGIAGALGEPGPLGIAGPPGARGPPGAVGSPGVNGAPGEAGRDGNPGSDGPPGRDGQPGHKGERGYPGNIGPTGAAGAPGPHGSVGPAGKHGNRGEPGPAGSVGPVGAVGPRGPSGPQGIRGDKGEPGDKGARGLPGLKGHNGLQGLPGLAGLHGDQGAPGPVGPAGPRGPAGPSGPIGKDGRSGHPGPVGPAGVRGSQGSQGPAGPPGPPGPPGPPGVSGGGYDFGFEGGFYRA

B1: extracellular domain of His-tagged murine LAIR-1 (receptor)
chain: QEGSLPDITIFPNSSLMISQGTFVTVVCSYSDKHDLYNMVRLEKDGSTFMEKSTEPYKTEDEFEIGPVNETITGHYSCIYSKGITWSERSKTLELKVIKENVIQTPAPGPTSDTSWLKTYSIYHHHHHH
notes: The entry includes the C-terminal His tag; Expressed in HEK293 cells; also called mLAIR1-His; mLAIR1
As a reminder, the EC50 (read off the curve) is the concentration giving half of the maximal effect. Low values mean greater potency, high ones weaker potency. As for B1, in test [1], the “IC50 (read off the curve)” value is ~300 nM. The “EC50 (read off the curve)” value in test [2] was ~20 nM. In test [3], the binding result is recorded as “no binding”.

B2: Lumican-Gluc (His-tagged murine lumican fused to Gaussia luciferase) (other)
chain: QYYDYDIPLFMYGQISPNCAPECNCPHSYPTAMYCDDLKLKSVPMVPPGIKYLYLRNNQIDHIDEKAFENVTDLQWLILDHNLLENSKIKGKVFSKLKQLKKLHINYNNLTESVGPLPKSLQDLQLTNNKISKLGSFDGLVNLTFIYLQHNQLKEDAVSASLKGLKSLEYLDLSFNQMSKLPAGLPTSLLTLYLDNNKISNIPDEYFKRFTGLQYLRLSHNELADSGVPGNSFNISSLLELDLSYNKLKSIPTVNENLENYYLEVNELEKFDVKSFCKILGPLSYSKIKHLRLDGNPLTQSSLPPDMYECLRVANEITVNGGGSGGGSGGGSKPTENNEDFNIVAVASNFATTDLDADRGKLPGKKLPLEVLKEMEANARKAGCTRGCLICLSHIKCTPKMKKFIPGRCHTYEGDKESAQGGIGEAIVDIPEIPGFKDLEPMEQFIAQVDLCVDCTTGCLKGLANVQCSDLLKKWLPQRCATFASKIQGQVDKIKGAGGDGGGSHHHHHH
notes: Expressed in HEK293 cells, 56.6 kDa; also called Lum GLuc
Usually Kd stands for the equilibrium constant for the complex coming apart. Read a high Kd as a looser complex. As for B2, the Kd in [4] amounted to 600 nM; in test [6], 130 nM. Also, the “EC50 (read off the curve)” value in test [5] and in test [7] was ~60 nM throughout.

B3: ColG s3a/s3b-Gluc (bacterial collagenase ColG domains s3a/s3b fused to Gaussia luciferase, His-tagged) (other)
chain: PITKEMEPNDDIKEANGPIVEGVTVKGDLNGSDDADTFYFDVKEDGDVTIELPYSGSSNFTWLVYKEGDDQNHIASGIDKNNSKVGTFKSTKGRHYVFIYKHDSASNISYSLNIKGLGNEKLKEKENNDSSDKATVIPNFNTTMQGSLLGDDSRDYYSFEVKEEGEVNIELDKKDEFGVTWTLHPESNINDRITYGQVDGNKVSNKVKLRPGKYYLLVYKYSGSGNYELRVNGGGSGGGSGGGSKPTENNEDFNIVAVASNFATTDLDADRGKLPGKKLPLEVLKEMEANARKAGCTRGCLICLSHIKCTPKMKKFIPGRCHTYEGDKESAQGGIGEAIVDIPEIPGFKDLEPMEQFIAQVDLCVDCTTGCLKGLANVQCSDLLKKWLPQRCATFASKIQGQVDKIKGAGGDGGGSHHHHHH
notes: Expressed in HEK293 cells, 46.1 kDa; also called ColG-Gluc; ColG s3s/s3b-Gluc
Consider B3, for which, in test [6], binding was characterised by a dissociation constant (Kd) of 139 nM.

B4: LAIR30.2.K1.B displayed on yeast (Aga2 fusion with c-myc tag) (receptor)
chain: QEGSLPDITIFPNSSLVISQGTFVTVVCSYSDKHDLYNMVRLEKDGSTFMEKSTAPYKTEDEFEIGPVNETITGHYSCIYSKGITWSERSKTLELKVIKENVIQTPAPGPTSDTLWLKTYSIY
notes: not shown: Aga2 protein of yeast, display anchor of the pCTCON2 vector; c-myc tag after the LAIR gene
As usually defined, the koff is the rate constant with which the complex falls apart. Read a high koff as a short-lived complex. For the molecule B4, the koff in test [8] was 4.17e-06 s⁻¹.

B5: His-tagged biotinylated lumican (other)
chain: QYYDYDIPLFMYGQISPNCAPECNCPHSYPTAMYCDDLKLKSVPMVPPGIKYLYLRNNQIDHIDEKAFENVTDLQWLILDHNLLENSKIKGKVFSKLKQLKKLHINYNNLTESVGPLPKSLQDLQLTNNKISKLGSFDGLVNLTFIYLQHNQLKEDAVSASLKGLKSLEYLDLSFNQMSKLPAGLPTSLLTLYLDNNKISNIPDEYFKRFTGLQYLRLSHNELADSGVPGNSFNISSLLELDLSYNKLKSIPTVNENLENYYLEVNELEKFDVKSFCKILGPLSYSKIKHLRLDGNPLTQSSLPPDMYECLRVANEITVNGGGSHHHHHH
modifications: biotinylated (site not stated)
notes: also called Lwt-His-b; Lwt-HIS-b
In the case of B5, in test [2], the “EC50 (read off the curve)” value is ~20 nM. The binding result in test [3] is “no binding”.

B6: lumican (purified His-tagged murine lumican, not biotinylated) (other)
chain: QYYDYDIPLFMYGQISPNCAPECNCPHSYPTAMYCDDLKLKSVPMVPPGIKYLYLRNNQIDHIDEKAFENVTDLQWLILDHNLLENSKIKGKVFSKLKQLKKLHINYNNLTESVGPLPKSLQDLQLTNNKISKLGSFDGLVNLTFIYLQHNQLKEDAVSASLKGLKSLEYLDLSFNQMSKLPAGLPTSLLTLYLDNNKISNIPDEYFKRFTGLQYLRLSHNELADSGVPGNSFNISSLLELDLSYNKLKSIPTVNENLENYYLEVNELEKFDVKSFCKILGPLSYSKIKHLRLDGNPLTQSSLPPDMYECLRVANEITVNGGGSHHHHHH
notes: also called Lwt
In the case of B6, the “fold reduction of binding affinity if lumican was not warmed to 37° C. prior to measurement” value in test [9] is ~50 fold.

The values are drawn from US20230174623A1 (MIT, published 2023).
